Measured values taken from patent US8357518B2, “Thermostable enzymes for the hydrolysis of mannan-containing polysaccharides” (The Board of Trustees of the University of Illinois, priority 2010, dated 2013).

Tests used:
Test in all cases: Catalytic efficiency with oligosaccharides, HPAEC (Man5A-TM1)
Assay type in all cases: biochemical, Caldanaerobius polysaccharolyticus
Details in all cases: other: Man5A-TM1 0.3 μM, oligosaccharide 30 μM, citrate buffer 50 mM, pH 5.5, 5 min, triplicate
[1] = substrate: OC[C@H]1O[C@@H](O[C@H]2[C@H](O)[C@@H](O)[C@H](O[C@H]3[C@H](O)[C@@H](O)[C@H](O[C@H]4[C@H](O)[C@@H](O)C(O)O[C@@H]4CO)O[C@@H]3CO)O[C@@H]2CO)[C@H](O)[C@@H](O)[C@@H]1O
Experimental: (§1) Cloning, expression, and purification of Man5A-TM1, Man5A-TM2 and Man5B. C. polysaccharolyticus was cultured in TYG medium and DNA was isolated from mid-log cultures and purified using the Qiagen DNeasy Blood and Tissue kit with an integrated RNase treatment step. The genome of C. polysaccharolyticus was partially sequenced by the W. M. Keck Biotechnology Center at the University of Illinois at Urbana-Champaign. A Newbler assembly was generated which is comprised of ½ plate of FLX PE 454 data and ½ plate of 8 kb paired-end GSFLX Titanium data using a Genome Sequencer instrument from 454 Life Sciences (Branford, Conn.). The partial genome sequence was uploaded onto the Rapid Annotation using Subsystem Technology (RAST) server (Aziz et al., BMC Genomics, 9:75, 2008). Auto-annotation of the C. polysaccharolyticus partial genome sequence identified ORF0760 as a gene predicted to encode a bifunctional β-D-mannanase/endoglucanase (Man5B). Man5A was previously identified in a recombinant phage library of C. polysaccharolyticus genomic DNA, which was screened for endoglucanase activity (Cann et al., J Bacteriol, 181:1643, 1999) and the full sequence of this gene was also identified in the partial genome sequence for C. polysaccharolyticus.
(§2) The DNA sequence corresponding to man5B was amplified by the PicoMaxx high fidelity PCR kit using genomic DNA as the template with the primer set Man5B-Forward and Man5B-Reverse (Table 1-1). The primers were engineered to incorporate a 5′-[…] (SEQ ID NO: 54) extension in Man5B-F and a 5′-[…] (SEQ ID NO: 55) extension in Man5B-R, which facilitated subsequent directional cloning. The resultant man5B amplicon was then digested with T4 DNA polymerase exonuclease activity, annealed with a similarly digested pET-46b vector and introduced into E. coli JM109 by electroporation. Man5A-TM1 was amplified using genomic DNA as template with primers Man5A-TM1-F and Man5A-TM1-R (Table 1-1). The primer sets for Man5A-TM1 and Man5A-TM2 were designed to include 5′-NdeI and 3′-XhoI restriction sites for subsequent directional cloning. The resulting amplicons were then cloned into the pGEM-T vector via TA-cloning and subcloned in-frame with the hexahistidine (His6) encoding sequence of a modified pET-28a expression vector via its NdeI-XhoI polylinker site. The truncated protein Man5A-TM2 originally named ManA-SLH-CBD was cloned as described in a previous study (Cann et al., J Bacteriol, 181:1643, 1999). Expression of each of the resulting gene constructs yielded fusion proteins containing an N-terminal polyhistidine tag sequence to facilitate affinity purification via metal chelate chromatography. The resulting plasmid constructs pET46-Man5B, pET28a-Man5A-TM1, and pET-28a-Man5A-TM2 were sequenced to confirm the integrity of the cloned genes (W. M. Keck Center for Comparative and Functional Genomics at the University of Illinois at Urbana-Champaign).
(§3) The plasmid constructs were then introduced into E. coli BL-21 CodonPlus (DE3) RIL competent cells by heat shock, and grown overnight in lysogeny broth (LB) agar medium supplemented with ampicillin (100 μg/mL) and chloramphenicol (50 μg/mL) at 37° C. After 12 h, single colonies were selected and used to inoculate fresh LB (10 mL) supplemented with the antibiotics above at the same concentrations, followed by culturing with aeration for 8 h at 37° C. The pre-cultures were then inoculated into fresh LB (1 L) supplemented with ampicillin and chloramphenicol and the cultures were incubated at 37° C. with vigorous aeration (225 rpm/min). The cultures were grown to an optical density of 0.3 at 600 nm, and the temperature was shifted to 16° C. and gene expression was induced by the addition of 0.1 mM isopropyl β-D-thiogalactopyranoside (IPTG). […]

[2] = substrate: OC[C@H]1O[C@@H](O[C@H]2[C@H](O)[C@@H](O)[C@H](O[C@H]3[C@H](O)[C@@H](O)[C@H](O[C@H]4[C@H](O)[C@@H](O)[C@H](O[C@H]5[C@H](O)[C@@H](O)C(O)O[C@@H]5CO)O[C@@H]4CO)O[C@@H]3CO)O[C@@H]2CO)[C@H](O)[C@@H](O)[C@@H]1O
Experimental: as §1, §2, §3

[3] = substrate: OC[C@H]1O[C@@H](O[C@H]2[C@H](O)[C@@H](O)[C@H](O[C@H]3[C@H](O)[C@@H](O)[C@H](O[C@H]4[C@H](O)[C@@H](O)[C@H](O[C@H]5[C@H](O)[C@@H](O)[C@H](O[C@H]6[C@H](O)[C@@H](O)C(O)O[C@@H]6CO)O[C@@H]5CO)O[C@@H]4CO)O[C@@H]3CO)O[C@@H]2CO)[C@H](O)[C@@H](O)[C@@H]1O
Experimental: as §1, §2, §3

[4] = substrate: OC[C@H]1O[C@@H](O[C@H]2[C@H](O)[C@H](O)[C@H](O[C@H]3[C@H](O)[C@H](O)[C@H](O[C@H]4[C@H](O)[C@H](O)C(O)O[C@@H]4CO)O[C@@H]3CO)O[C@@H]2CO)[C@@H](O)[C@@H](O)[C@@H]1O
Experimental: as §1, §2, §3

[5] = substrate: OC[C@H]1O[C@@H](O[C@H]2[C@H](O)[C@H](O)[C@H](O[C@H]3[C@H](O)[C@H](O)[C@H](O[C@H]4[C@H](O)[C@H](O)[C@H](O[C@H]5[C@H](O)[C@H](O)C(O)O[C@@H]5CO)O[C@@H]4CO)O[C@@H]3CO)O[C@@H]2CO)[C@@H](O)[C@@H](O)[C@@H]1O
Experimental: as §1, §2, §3

[6] = substrate: OC[C@H]1O[C@@H](O[C@H]2[C@H](O)[C@H](O)[C@H](O[C@H]3[C@H](O)[C@H](O)[C@H](O[C@H]4[C@H](O)[C@H](O)[C@H](O[C@H]5[C@H](O)[C@H](O)[C@H](O[C@H]6[C@H](O)[C@H](O)C(O)O[C@@H]6CO)O[C@@H]5CO)O[C@@H]4CO)O[C@@H]3CO)O[C@@H]2CO)[C@@H](O)[C@@H](O)[C@@H]1O
Experimental: as §1, §2, §3

B1: Caldanaerobius polysaccharolyticus endo-β-mannanase Man5A truncation mutant Man5A-TM1, SEQ ID NO: 28 (Caldanaerobius polysaccharolyticus) (protein)
chain: AGTSGDGRFHVVGNKIVDPDGKDFIIKGVNIQGYRSWEKRSVLQDVHLIADVWKFNTVRLNCFIGQNNWGEGTGANNDIDAIIKAFTAKKVVVEIDLHDTTGYPPLSNPPPAPGQPSLDQAIAWFKELAAKYKDNPYVWFNTMNEPGSSTAPLDPQWKVANEEIIKAIRSTGADNIIVVDGWSYANEGIEQNTPTVDEKRSAVLTYGQDLLNADSAKNTIFAFHNYNEGDIQKKVEDYIDRANAKGLYVFMEEYGKDYSDAAKEGVKSGLQAVMNKGAGRIYWNWDGYDLYDLTSGTGRGSGWEINKTDGSKPTNLSWVGDKIWDDNHGITPTFDDQNPKVDLALERLIANNNGFKAGDKVQFTTFLRNSGDLPIGKDSKVVVKFYVDGVQLGDPVEISGGIAVGQRIPVTSPELTVSKTDFTVKAVIDSSSTYADGAEDAVIENNWIEAAFNSTAPSSGYELVVTGIKITPDTVKEGDYVQAQVTVANQGPEATPVTNIIGWFYVNGYYYTLDDAAKSCAEQDNVTLKPGESITLSTKVKYRAAAPFNFSFVLENLYADDQNQSNNSITVNVPVKMGEGGVNMVSNPGFEDGLDSWQDWQQDMSAVPEAAHNGALGLKIGGGKAAGGGQDIPLKPNTTYILGAWAKFDSKPAGTFDVVVQYHLKDANNTYVQHILNFNETDWTYKQLLFTTPDVFGSTPQLALWKGDTSKANLYVDDVYLVEVSNLIVNGTAENGMDGWPDWGYPVSAVPEAAYGGTKGFKLSGGKQAGMGQKVALKPNTTYILGAWGKFTAKPGTYCDVIVQYHLKDANNTYVQNILRFTETDWTYKQVVFTTPDAFGSDPEFVLWKDDASNADFYADNITLVEV
Which results are given for B1?
kcat/Km [1]: 11000 ± 2000 M⁻¹ s⁻¹; kcat/Km [2]: 9300 ± 2000 M⁻¹ s⁻¹; kcat/Km [3]: 20000 ± 2000 M⁻¹ s⁻¹; kcat/Km [4]: 17000 ± 4000 M⁻¹ s⁻¹; kcat/Km [5]: 33000 ± 3000 M⁻¹ s⁻¹; kcat/Km [6]: (1.2 ± 0.2) × 10^2 mM^−1 s^−1
